The record followed here is article PMC5461336, “Non-canonical Glucocorticoid Receptor Transactivation of gilz by Alcohol Suppresses Cell Inflammatory Response”.

Sequences and labels used below:
B1: Mut-GRE2 (dsDNA)
DNA 1: GGTGGAACCCAAGAGCACCCTTTGGTCCTG
DNA 2: CAGGACCAAAGGGTGCTCTTGGGTTCCACC
B2: Wt-GRE1 (dsDNA)
DNA 1: CAAACTAGCGCTGTTCTTTACTGAATGCCC
DNA 2: GGGCATTCAGTAAAGAACAGCGCTAGTTTG
B3: Mut-GRE1 (dsDNA)
DNA 1: CAAACTAGCGCCAGGTCTTTACTGAATGCCC
DNA 2: GGGCATTCAGTAAAGACCTGGCGCTAGTTTG
B4: Wt-GRE2 (dsDNA)
DNA 1: GGTGGAACCCAATGTTCTCCTTTGGTCCTG
DNA 2: CAGGACCAAAGGAGAACATTGGGTTCCACC

In this series the target is Glucocorticoid receptor (Hu-GR), unliganded (human, UniProt P04150 1-777). The experiment in a line: EMSA; no glucocorticoid; GR 40 ng (0.5 pmol), probe 0.5 ng (0.05 pmol), 1 ug poly(dI-dC), 25 ul; 6% non-denaturing PAGE; buffer, salt, pH and temperature not stated. The following applies: protein: recombinant; chain copies: 2; label: 32P 5'-end; blunt.
Chain of Glucocorticoid receptor (Hu-GR), unliganded (P04150 whole entry): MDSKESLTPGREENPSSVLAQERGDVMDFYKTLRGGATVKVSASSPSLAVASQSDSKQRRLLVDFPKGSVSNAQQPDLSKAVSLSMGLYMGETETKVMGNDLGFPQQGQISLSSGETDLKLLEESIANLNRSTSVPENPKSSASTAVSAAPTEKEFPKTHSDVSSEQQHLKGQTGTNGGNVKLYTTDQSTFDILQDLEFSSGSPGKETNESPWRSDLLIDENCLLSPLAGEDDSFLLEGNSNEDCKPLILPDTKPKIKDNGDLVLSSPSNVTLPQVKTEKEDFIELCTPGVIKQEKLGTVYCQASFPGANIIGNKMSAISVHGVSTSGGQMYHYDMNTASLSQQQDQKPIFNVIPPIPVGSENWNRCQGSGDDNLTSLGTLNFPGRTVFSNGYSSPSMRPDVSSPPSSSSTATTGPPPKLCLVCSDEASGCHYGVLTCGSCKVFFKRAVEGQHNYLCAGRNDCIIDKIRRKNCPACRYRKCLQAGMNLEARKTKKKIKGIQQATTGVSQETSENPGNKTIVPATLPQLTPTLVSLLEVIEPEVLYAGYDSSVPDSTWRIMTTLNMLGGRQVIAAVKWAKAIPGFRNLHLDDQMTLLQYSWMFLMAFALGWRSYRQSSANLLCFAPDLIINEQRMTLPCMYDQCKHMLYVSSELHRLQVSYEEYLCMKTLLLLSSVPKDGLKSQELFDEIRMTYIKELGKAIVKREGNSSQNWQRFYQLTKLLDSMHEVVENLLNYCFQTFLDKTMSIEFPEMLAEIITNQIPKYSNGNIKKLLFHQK
With B1, the binding result is “no binding”.

Turning to B2, the binding result is “binds”.

As for B3, the binding result is “no binding”.

Turning to B4, the binding result was “binds”.
